Measurements from US20240239894A1, “THERAPEUTIC BINDING MOLECULES” (MedImmune Limited, priority 2020, published 2024).
Read-outs that look alike come from different tables or passages of the source.

B1: ZY0EQD-E02: anti-B7-H4 antibody clone, VH SEQ ID NO: 33, VL SEQ ID NO: 34 (antibody, V domains shown)
VH: QVQLQQWGAGLLKPSETLSLTCAVYGGSFSGYYWNWIRQPPGKGLEWIGEINHSGSTSYNPSLKSRVTISVDTSKNQFSLKLSSVTAADTAVYYCARVLYNWNVDSWGQGTLVTVSS
VL: DIQMTQSPSSLSASVGDRVTITCRASQDIRNDVGWYQQKPGKAPKRLIYAASRLQSGVPSRFSGSGSGTEFTLTISSLQPEDFATYYCLQHNSYPRTFGQGTKVEIK
B2: E02-INT Fab: antigen binding fragment of anti-B7-H4 antibody E02-INT (antibody, V domains shown)
VH: QVQLQQWGAGLLKPSETLSLACTVYGGSFSGYYWNWIRQPPGKGLEWIGEINHSGSTSYNPSLKSRVTISVDTSKNQFSLKLSSVTAADTAVYYCARVLYNWNVDSWGQGTLVTVSS
VL: DIQMTQSPSSLSASVGDRVTITCRASQDIRNDVGWYQQKPGKAPKRLIYAASRLQSGVPSRFSGSGSGTEFTLTISSLQPEDFATYYCLQHNSYPRTFGQGTKVEIK
B3: ZY0EPQ-E02: anti-B7-H4 antibody clone, VH SEQ ID NO: 31, VL SEQ ID NO: 32 (antibody, V domains shown)
VH: QVQLQQWGAGLLKPSETLSLTCAVYGGSFSGYYWNWIRQPPGKGLEWIGEINHSGSTNYNPSLKSRVTILVDTSKNQFSLKLSSVTAADTAVYYCARNLYNWNLDSWGQGTLVTVSS
VL: DIQMTQSPSSLSASVGDRVTITCRASQGIRNDLGWYQQKPGRAPKRLIYVASSLQSGVPSRFSGSGSGTEFTLTISSLQPEDFATYYCLQHNSYPRTFGQGTKVEIK
B4: ZY0EOB-F05: anti-B7-H4 antibody clone, VH SEQ ID NO: 35, VL SEQ ID NO: 36 (antibody, V domains shown)
VH: QVQLQESGPGLVKPSQTLSLTCTVSDGSISSGGYYWSWIRQHPGKGLEWIGNIYYSGSTYYNPSLKSRVTISVDTSKNQFSLKLNSVTAADTAVYYCATEKALATVTPSGYENYYTVDVWGQGTTVTVSS
VL: DIQLTQSPSFLSASVGDRVTITCWASQGISSYLAWYQQKPGKAPKLLIYAASTLQSGVPSRFSGSGSGTEFTLTISSLQPEDFATYYCQHLNSYPLTFGGGTKVEIK
B5: ZY0E05-E07: anti-B7-H4 antibody clone, VH SEQ ID NO: 37, VL SEQ ID NO: 38 (antibody, V domains shown)
VH: QVQLQESGPGLVKPSQTLSLTCTVSGGSISSGGYYWSWIRQHPGKGLEWIGNIYYSGSTYYNPSLKSRVTISVDTSKNQFSLKLSSVTAADTAVYYCAREKALASVIPSGYENYYVVDVWGQGTTVTVSS
VL: DIQLTQSPSFLSASVGGRVTITCWASQGIAGYLAWYQQKPGKAPKLLIYAASTLQSGVPSRFSGSGSGTEFTLTISSLQPEDFATYYCQHLNSYPLTFGGGTKVEIK
B6: ZY0EP0-C07: anti-B7-H4 antibody clone, VH SEQ ID NO: 39, VL SEQ ID NO: 40 (antibody, V domains shown)
VH: QVQLVESGGVLVKPGGSLRLSCAASGFTLSDYYMSWIRQAPGMGLEWVSYISSSGSTIYYTDSVKGRFTISRDSAKNSLYLQMNSLRAEDTAVYYCARDGVGFDYWGQGTLVTVSS
VL: EIVLTQSPGTLSLFPGERATLSCRASQSVSSSYLAWYQQKPGQSPRLLIYAASSRATGIPDRFSGSGSGTDFTLTISRLEPEDFAVYYCQQYGSSPLYTFGQGTKLEIK

How the values were obtained:
[1] = test system: B7-H4 from human (including a splice variant), cynomolgus macaque, mouse and rat; experiment: Clone ZY0EQD_E02 specificity ELISA; type: binding; details: Maia format mAbs
OVCAR4 cells = experiment: On-cell western; type: cell-based, human
Procedure: (§1) The on-cell western method was developed and used to run 5 exemplary antibody clones with the following cells: SKBR3, A549, OVCAR4 (all minus transfections with B7-H4 vector), CHO and HEK cells (plus and minus transfection with full length B7-H4 vector).
(§2) Cells were detached from T175 flasks using Accutase and counted. Transfection method used was essentially that stated in the Invitrogen Lipofectamine LTX protocol (high throughput protocol using the reverse transfection method). 100 μl of cells (4.5×10^4 per 100 μl) was added to 96 well plates containing the DNA-lipofectamine mix. Plates incubated at 37° C. for 18 hours and fixed using 10% buffered formalin overnight. Plates were blocked with Odyssey blocking buffer, incubated with appropriate primary antibodies overnight followed by washing and detection with the appropriate Odyssey secondary antibody.
(§3) Plates were air dried and scanned using the Odyssey Imager using the recommended scan levels provided by the manufacturer.

HumanB7-H4 = biological target: T1, HumanB7-H4 (Homo sapiens, UniProt Q7Z7D3); experiment: ForteBio Octet affinity; type: binding
T1 construct: Human B7H4 ECD; FLAG; 10His; made in house
T1 sequence (Q7Z7D3 25-259 limits assumed): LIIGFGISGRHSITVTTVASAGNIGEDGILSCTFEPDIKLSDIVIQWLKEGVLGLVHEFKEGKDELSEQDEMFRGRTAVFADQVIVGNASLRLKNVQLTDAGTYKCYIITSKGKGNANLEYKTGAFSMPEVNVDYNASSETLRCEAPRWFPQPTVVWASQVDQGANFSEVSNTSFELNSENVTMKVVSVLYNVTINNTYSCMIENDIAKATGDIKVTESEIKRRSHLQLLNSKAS

MurineB7-H4 = biological target: T2, MurineB7-H4 (Mus musculus, UniProt Q7TSP5); experiment: ForteBio Octet affinity; type: binding, murine
T2 construct: Mouse B7H4 ECD; FLAG (C); 10His (C); made in house
T2 sequence (Q7TSP5 25-257 limits assumed): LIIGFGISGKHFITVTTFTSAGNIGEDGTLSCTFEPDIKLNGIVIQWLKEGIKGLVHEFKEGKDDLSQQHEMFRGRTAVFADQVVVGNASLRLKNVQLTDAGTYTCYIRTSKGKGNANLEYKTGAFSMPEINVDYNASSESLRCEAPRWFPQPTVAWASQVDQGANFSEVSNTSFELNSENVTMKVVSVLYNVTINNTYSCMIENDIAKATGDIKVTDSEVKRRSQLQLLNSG

[2] = test system: B7-H4-SV (splice variant); experiment: ForteBio Octet affinity
[3] = test system: SKBR3, A549, OVCAR4, CHO and HEK cells; experiment: On-cell western, panel of cell types; type: cell-based; details: compared with control antibodies (lanes E, U, R, S)
Procedure: as §1, §2, §3

recombinant mouse B7-H4 = biological target: T3, recombinant mouse B7-H4 (Mus musculus, UniProt Q7TSP5); experiment: SPR affinity of Fab; type: binding
T3 sequence (Q7TSP5 25-257): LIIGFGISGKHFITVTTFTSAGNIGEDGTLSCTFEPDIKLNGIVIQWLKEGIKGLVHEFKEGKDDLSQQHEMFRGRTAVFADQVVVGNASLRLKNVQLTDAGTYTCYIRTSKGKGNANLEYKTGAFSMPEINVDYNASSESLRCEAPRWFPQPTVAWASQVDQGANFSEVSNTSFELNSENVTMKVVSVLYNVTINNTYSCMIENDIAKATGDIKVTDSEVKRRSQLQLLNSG
Procedure: The binding affinity of anti-B7-H4 antibody E02-INT Fab for recombinant human, cynomolgus monkey, and mouse B7-H4 variants were determined by surface plasmon resonance (SPR).

[4] = test system: transfected CHOs (full length B7-H4 vector); experiment: On-cell western; type: cell-based, Chinese hamster
Procedure: as §1, §2, §3

[5] = test system: transfected HEKs (full length B7-H4 vector); experiment: On-cell western; type: cell-based
Procedure: as §1, §2, §3

monomeric B7-H4-FLAG = biological target: T4, monomeric B7-H4-FLAG (Homo sapiens, UniProt Q7Z7D3); experiment: HTRF epitope binning; type: binding
T4 construct: 10His; made in house
T4 sequence (Q7Z7D3 25-259 limits assumed): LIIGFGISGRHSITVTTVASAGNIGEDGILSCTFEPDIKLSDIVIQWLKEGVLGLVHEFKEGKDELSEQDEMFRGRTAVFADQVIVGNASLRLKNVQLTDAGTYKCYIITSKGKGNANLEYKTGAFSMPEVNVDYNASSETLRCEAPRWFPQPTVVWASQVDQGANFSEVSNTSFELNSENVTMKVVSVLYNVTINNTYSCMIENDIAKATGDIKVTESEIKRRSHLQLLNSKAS
Procedure: Epitope binning was performed in an HTRF assay format using the exemplary antibodies (IgG1-TM) conjugated with DyLight-649 binding to the monomeric B7-H4-FLAG LCD with detection with europium conjugated anti-FLAG antibody.
Bin 1 was defined with the ZY0EPQ-E02, ZY0EQD-E02 and ZY0E05-E07 antibodies fully inhibiting each other, and only partial inhibiting ZY0EP0-C07. Bin 2 was defined with the ZY0EOB-F05 antibody fully competing with all antibodies and all antibodies fully competing with it. Bin 3 was defined with ZY0EP0-C07 partially competing with antibodies ZY0EPQ-E02, ZY0EQD-E02 and ZY0E05-E07 (Bin 1).

Molecule	binding to OVCAR4 cells (OVCAR4 cells)	kdis (HumanB7-H4; hIgG1 (n = 1)) [s⁻¹]	kon (HumanB7-H4; hIgG1 (n = 1)) [M⁻¹ s⁻¹]	kdis (HumanB7-H4; hIgG1-TM (n = 4-7)) [s⁻¹]	kon (HumanB7-H4; hIgG1-TM (n = 4-7)) [M⁻¹ s⁻¹]	kdis (MurineB7-H4; hIgG1 (n = 1)) [s⁻¹]	kon (MurineB7-H4; hIgG1 (n = 1)) [M⁻¹ s⁻¹]	kdis (MurineB7-H4; hIgG1-TM (n = 4-7)) [s⁻¹]	kon (MurineB7-H4; hIgG1-TM (n = 4-7)) [M⁻¹ s⁻¹]	kdis ([2]; hIgG1 (n = 1)) [s⁻¹]	kon ([2]; hIgG1 (n = 1)) [M⁻¹ s⁻¹]	kdis ([2]; hIgG1-TM (n = 4-7)) [s⁻¹]	kon ([2]; hIgG1-TM (n = 4-7)) [M⁻¹ s⁻¹]	binding across cell types [3]	binding to transfected CHOs [4]	binding to transfected HEKs [5]	also measured
B1	bind	0.00321	216000	0.00278	193000	0.213	341000	0.126	203000	0.00349	4190	0.00269	3360	bind a wide spectrum of cell types			binding profile to B7-H4 antigens [1]: binding to human, cynomolgus, mouse and rat B7-H4
B2																	fold lower affinity for mouse than for human B7-H4 antigen (recombinant mouse B7-H4): approximately 100 fold
B3	bind	0.00208	85900	0.00182	70900	0.0498	100000	0.0304	76700	0.00252	2460	0.00229	1380	bind a wide spectrum of cell types			
B4	bind	0.000362	31000	0.000355	26500	0.000493	24900	0.000476	18700	0.000598	4710	0.000584	3350		bind	good results	
B5	bind	0.000318	21700	0.000338	17100	0.000415	17900	0.000361	12100	0.000528	2910	0.000499	1890		bind	good results	
B6		0.000363	48800	0.000397	41600	0.000551	60200	0.000524	43000								Epitope Bin (monomeric B7-H4-FLAG): Bin 3; Epitope Bin (monomeric B7-H4-FLAG; listed as ZY0EPO-C07): 3; KD (nM) ([2]; hIgG1 (n = 1)): No Binding; KD (nM) ([2]; hIgG1-TM (n = 4-7)): No Binding; Octet KD (nM) ([2]; summary Table 14): No Binding
